From patent US20220174981A1, “PROLINE TOLERANT TRIPEPTIDYL PEPTIDASES AND USES THEREOF” (DuPont Nutrition Biosciences APS, priority 2014, published 2022)

Key:
[1] = Stability of TRI045 in the presence of pepsin; assay type: biochemical, Swine; details: 500 units pepsin/mL, pH3.5, 40° C., 60 min
Description: Pepsin solution: Swine pepsin from Sigma (P7000, 674 Sigma units/mg, www.sigma.com) was used in this example and prepared in MilliQ water at 10000 Sigma unit/ml at 10000 Sigma unit/mL
Pre-incubation mixture contained: 2.5 μl TRI045 sample, 95 μl GAT buffer (50 mM glycine-50 mM acetic acid-50 mM Tris, pH3.5), 5 μl pepsin in milliQ water (10000 Sigma unit/ml) (final pepsin unit concentration: 500 Sigma unit/ml reaction mixture) in a half bottom area 96 well Corning MTP. For control, the pre-incubation mixture contained 5 μl water instead of 5 μl pepsin. The mixture was incubated at 40° C. for 60 min and then kept on ice. For assaying the residual activity, the assay mixture contained the pre-incubation mixture 5 μl, 0.1M acetic acid-sodium acetate (pH4.0) 85 μl, 5 μl H-Ala-Ala-Phe-pNA (2.5 mg/ml) from BACHEM.com (L-1095.0250). The 410 nm reading was followed in a microplate reader every 0.5 min at 30° C. N=2.

H-Ala-Ala-Phe-pNA = test: Effect of pH on TRI045 activity with H-Ala-Ala-Phe-pNA; assay type: biochemical
Description: The tripeptide substrate H-Ala-Ala-Phe-pNA (AAF-pNA from BACHEM.com, L-1095.0250) for sedolisin was prepared at 2.5 mg/ml in DMSO. The reaction was prepared by mixing 8.5 μl AAF-pNA, 7 μl DMSO, 32 μl water and 50 μl buffer with pH4.14-6.57, and 0.8 μl or 1.5 ul TRI045. The reaction was started at 30° C. by the addition of the enzyme TRI045. The initial reaction rate was recorded using a microplate reader at every 0.5 min interval at 410 nm in 96 well plate.

H-Ala-Ala-Ala-pNA = test: Exopeptidase Broad-Specificity Assay (EBSA) with H-Ala-Ala-Ala-pNA; pH and temperature profile; assay type: biochemical; details: H-Ala-Ala-Ala-pNA; 20 mM Na-glycine pH 2.0-4.0 or Na-acetate pH 4.0-5.5
Description: 10 μL of the chromogenic peptide solution (10 mM H-Ala-Ala-Ala-pNA dissolved in dimethyl sulfoxide (DMSO); MW=387.82; Bachem, Switzerland) were added to 130 μl Na-acetate (20 mM, adjusted to pH 4.0 with acetic acid) in a microtiter plate and heated for 5 minutes at 40° C. 10 μL of appropriately diluted enzyme was added and the absorption was measured in a MTP reader (Versa max, Molecular Devices, Denmark) at 405 nm. One katal of proteolytic activity was defined as the amount of enzyme required to release 1 mole of p-nitroaniline per second.
The chromogenic peptide H-Ala-Ala-Ala-pNA (MW=387.82; Bachem, Switzerland) was used to determine the activity of proline tolerant tripeptidyl peptidase in the samples produced as described above. The assay was conducted as follows, 10 μL of the chromogenic peptide solution (10 mM dissolved in dimethyl sulfoxide; DMSO) were added to 130 μl Na-acetate (20 mM, adjusted to pH 4.0 with acetic acid) in a microtiter plate and heated for 5 minutes at 40° C. 10 μL of appropriately diluted enzyme was added and the absorption was measured in an MTP reader (Versa max, Molecular Devices, Denmark) at 405 nm. One katal of proteolytic activity was defined as the amount of enzyme required to release 1 mole of p-nitroaniline per second.
The proline tolerant tripeptidyl peptidase assay described with H-Ala-Ala-Ala-pNA substrate above with modification of using the buffers 20 mM Na-glycine (pH 2.0, 2.5, 3.0, 3.5 and 4.0) or 20 mM Na-acetate buffer (pH 4.0, 4.5 and 5.5) was used to determine the pH profile of proline tolerant tripeptidyl peptidase TRI083 (FIG. 2) and TRI045 (FIG. 24)..
The proline tolerant tripeptidyl peptidase assay described above was used at temperatures 25, 50, 55, 60, 65, 70, 75, 80 and 85° C.
For proline tolerant tripeptidyl peptidase the chromogenic peptide H-Ala-Ala-Ala-pNA was used. The assay was conducted as follows, 27.5 μL of appropriately diluted enzyme was added to 200 μl McIlvaine buffer (20 mM, pH 4.0). After incubation at 50° C. for 5 min, 12.5 μL of the chromogenic peptide solution (5 mg/mL dissolved in dimethyl sulfoxide (DMSO); Sigma-Aldrich, Denmark) were added to the reaction mixture. The reaction was terminated by adding 50 μL of 0.5 M trichloroacetic acid (TCA; Sigma-Aldrich, Denmark). After centrifugation (15,000×g, 5 min), 240 μL of the solution were transferred to a microtiter plate (MTP; Kisker-biotech, Germany) and the absorption was measured in an MTP reader (Molecular Devices, Denmark) at 405 nm. One katal of proteolytic activity was defined as the amount of enzyme required to release 1 mol of p-nitroaniline per second.

corn soy feed = test: TRI045 plus pepsin and pancreatin on corn soy feed, OPA and BCA assays; assay type: biochemical; details: TRI045 1000 ppm, swine pepsin and pancreatin present
Description: The in vitro reaction system contained 140 μl 10% (w/v) corn soy feed slurry (14 mg corn soy feed), 10 μl TRI045 in 50m M MES-NaOH pH 6.0, 10 μl swine pepsin (1.14 U/μL in water). The reaction was incubated with shaking at 40° C. for 45 min and subsequently 34 μl swine pancreatin (0.4636 mg/mL in 1M Na-bicarbonate) were added and further incubated for additional 60 min. After incubation, the 96-well plate was centrifuged and supernatants were used for residual TRI045 activity assay and for OPA and BCA assays (see below).
Reference: P. M. Nielsen, D. Petersen and C. Dambmann. Improved Method for Determining Food Protein Degree of Hydrolysis. Journal of Food Science. 66 (2001) 642-646.
For OPA assay the following procedure was carried out.
To quantify the protein concentrations of each protease samples, the Pierce BCA Protein Assay Reagent Kit (Thermo Scientific, cat no. 23228) was used. The TRI045 sample was not purified before quantification. The Pierce BCA Protein Assay Kit is a detergent-compatible formulation based on bicinchoninic acid (BCA) for colorimetric detection and quantification of total proteins. This method combines the well-known reduction of Cu^2+ to Cu^1+ by protein in an alkaline medium with the highly sensitive and selective colorimetric detection of the cuprous cat ion (Cu^+1) using a unique reagent containing bicinchoninic acid. […]

AAF-pNA = test: Residual activity on AAF-pNA after in vitro digestion with pepsin and pancreatin; assay type: biochemical
Description: In order to test the stability of TRI045 under the in vitro assay conditions described above (incubation in the presence of pepsin at pH3 for 45 min at 40° C. and subsequently in the presence of pancreatin for 60 min at 40° C.). The residual activity of TRI045 was subsequently assayed. The reaction mixture contained 50 μl buffer 0.1M HAC-NaAC (pH5.0), 10 μl the supernatant, and 5 μl AAF-pNA (5 mg/ml in DMSO). The reaction rate was followed at 410 nm and 30° C. every 30 seconds using a microplate reader. As a control, a commercial protease at the same concentration of 1000 ppm was used.

B1: TRI045: tripeptidyl peptidase having pre-pro sequence SEQ ID No. 98 and mature protein SEQ ID No. 99 (protein, listed as Arthroderma benhamiae)
chain: CRSLVTTACLRELYGLGDRVTQARDDNRIGVSGFLEEYAQYRDLELFLSRFEPSAKGFNFSEGLIAGGKNTQGGPGSSTEANLDMQYVVGLSHKAKVTYYSTAGRGPLIPDLSQPSQASNNNEPYLEQLRYLVKLPKNQLPSVLTTSYGDTEQSLPASYTKATCDLFAQLGTMGVSVIFSSGDTGPGSSCQTNDGKNATRFNPIYPASCPFVTSIGGTVGTGPERAVSFSSGGFSDRFPRPQYQDNAVKDYLKILGNQWSGLFDPNGRAFPDIAAQGSNYAVYDKGRMTGVSGTSASAPAMAAIIAQLNDFRLAKGSPVLGFLNPWIYSKGFSGFTDIVDGGSRGCTGYDIYSGLKAKKVPYASWNATKGWDPVTGFGTPNFQALTKVLP
residual activity [1]: over 90% | activity at around pH4 and pH6.5 (H-Ala-Ala-Phe-pNA; AAF-pNA, 30° C.): around 50% | Relative activity with pH 5.01 as 100% (H-Ala-Ala-Phe-pNA; pH 4.1, 0.1M HAC-NaAC): 59.4% | Relative activity with pH 5.01 as 100% (H-Ala-Ala-Phe-pNA; pH 4.6, 0.1M HAC-NaAC): 81.7% | Relative activity with pH 5.01 as 100% (H-Ala-Ala-Phe-pNA; pH 5.0, 0.1M HAC-NaAC): 100.0% | Relative activity with pH 5.01 as 100% (H-Ala-Ala-Phe-pNA; pH 5.6, 0.1M HAC-NaAC): 80.7% | Relative activity with pH 5.01 as 100% (H-Ala-Ala-Phe-pNA; pH 6.0, 0.1M Mes-NaOH): 72.2% | Relative activity with pH 5.01 as 100% (H-Ala-Ala-Phe-pNA; pH 6.6, 0.1M Mes-NaOH): 48.5% | Optimum pH (H-Ala-Ala-Ala-pNA): 4.0 | increase of release of free amino groups from corn soy feed (OPA value) (corn soy feed): 9% | increase of protein solubility (corn soy feed; BCA): 5% | time stable to pepsin and pancreatin (AAF-pNA; 40° C.): at least 100 minutes | reaction rate (AAF-pNA; 1000 ppm, after pepsin 45 min and pancreatin 60 min at 40° C., control 4.3 mOD/min): 19.3 mOD/min | stability to pepsin and pancreatin in the presence of corn soy feed (AAF-pNA; 105 min at 40° C., pH range of 3 to 7): stable to pepsin and pancreatin | residual activity on AAF-pNA relative to the commercial protease (AAF-pNA; after subtraction of the control (4.3 mOD/min)): 2.2 times
